Laboratory results as given in patent US20250215109A1.

Target: HER2 on human tumor cells (human) (UniProt P04626)
Test: Her2 receptor occupancy on SK-BR-3 cells, FACS, competitor biotin-labeled parental anti-HER2 antibody

Magrolimab (antibody)
Max RO %: 0%
